Experimental data published in patent publication US20180118837A1 (Hoffmann-La Roche, published 2018).

Assays:
[1] = target: SBP-tagged HER3-ECD (human); experiment: ELISA-type assay, 10 nM Eu-labelled Heregulin-beta on plate-bound SBP-tagged HER3-ECD, M-05-74 titrated
[2] = target: T1, HER3 ECD-HRG complex (human, UniProt P21860 20-643); experiment: SPR Biacore T100, antibody captured
T1 construct: Her-3 ECD pre-incubated with a 5-fold molar excess of Heregulin; also called Heregulin/Her-3 ECD

[3] = target: T2, HER4 ECD-HRG complex (human, UniProt Q15303 26-651); experiment: SPR Biacore T100, antibody captured
T2 construct: Her-4 ECD pre-incubated with a 5-fold molar excess of Heregulin; also called Her-4 ECD/Heregulin complex
T2 sequence 1: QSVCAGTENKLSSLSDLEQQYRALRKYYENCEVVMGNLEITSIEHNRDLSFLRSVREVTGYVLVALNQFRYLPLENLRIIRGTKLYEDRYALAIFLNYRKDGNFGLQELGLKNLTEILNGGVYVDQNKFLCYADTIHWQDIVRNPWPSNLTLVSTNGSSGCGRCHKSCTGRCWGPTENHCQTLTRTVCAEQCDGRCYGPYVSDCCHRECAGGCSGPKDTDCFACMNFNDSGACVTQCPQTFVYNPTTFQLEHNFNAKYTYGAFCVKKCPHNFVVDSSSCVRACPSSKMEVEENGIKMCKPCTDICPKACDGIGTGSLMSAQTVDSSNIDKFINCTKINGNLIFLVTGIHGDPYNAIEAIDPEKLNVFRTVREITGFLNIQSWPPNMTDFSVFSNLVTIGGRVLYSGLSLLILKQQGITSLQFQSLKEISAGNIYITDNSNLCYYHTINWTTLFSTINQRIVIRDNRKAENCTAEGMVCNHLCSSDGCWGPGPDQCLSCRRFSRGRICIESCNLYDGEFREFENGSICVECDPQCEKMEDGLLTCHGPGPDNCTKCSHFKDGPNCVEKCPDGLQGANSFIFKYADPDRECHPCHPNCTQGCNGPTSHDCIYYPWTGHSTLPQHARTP
T2 sequence 2: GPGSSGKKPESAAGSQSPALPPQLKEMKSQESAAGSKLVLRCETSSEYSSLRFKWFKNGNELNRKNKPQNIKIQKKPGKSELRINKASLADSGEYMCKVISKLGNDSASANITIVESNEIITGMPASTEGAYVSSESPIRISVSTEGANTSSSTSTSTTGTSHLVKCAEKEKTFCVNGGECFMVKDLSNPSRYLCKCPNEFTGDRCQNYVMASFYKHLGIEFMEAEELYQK

[4] = target: T1, HER3 ECD-HRG complex; experiment: binding affinity; method not restated (evaluated 'as described above')
[5] = target: T3, human recombinant HER3 ECD (human, UniProt P21860 20-643); experiment: binding affinity; method not restated (evaluated 'as described above'); HER3-ECD without HRG
T3 construct: 68 kDa recombinant protein; also called human-Her3-ECD; full length Her3 ECD

[6] = target: T3, human recombinant HER3 ECD; experiment: binding affinity; method not restated (evaluated 'as described above')

T1 sequence (P21860 20-643 limits assumed, one chain of several): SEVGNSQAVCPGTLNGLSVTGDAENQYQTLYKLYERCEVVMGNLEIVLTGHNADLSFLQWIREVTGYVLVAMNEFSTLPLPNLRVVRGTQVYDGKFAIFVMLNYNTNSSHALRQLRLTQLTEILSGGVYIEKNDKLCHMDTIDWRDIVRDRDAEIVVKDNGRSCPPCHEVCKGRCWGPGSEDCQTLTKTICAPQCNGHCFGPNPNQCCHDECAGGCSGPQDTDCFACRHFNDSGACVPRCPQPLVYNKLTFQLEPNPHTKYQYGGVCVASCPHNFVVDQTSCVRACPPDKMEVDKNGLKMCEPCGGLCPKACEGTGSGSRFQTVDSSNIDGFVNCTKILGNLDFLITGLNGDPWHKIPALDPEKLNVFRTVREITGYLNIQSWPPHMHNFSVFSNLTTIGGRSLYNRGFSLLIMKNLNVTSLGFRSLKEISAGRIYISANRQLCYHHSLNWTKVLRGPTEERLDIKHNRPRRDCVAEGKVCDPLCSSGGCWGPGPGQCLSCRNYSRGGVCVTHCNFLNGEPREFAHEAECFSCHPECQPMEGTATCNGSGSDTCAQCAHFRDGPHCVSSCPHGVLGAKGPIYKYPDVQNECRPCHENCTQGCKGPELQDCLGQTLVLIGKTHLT
T3 sequence (P21860 20-643): as the sequence (P21860 20-643 limits assumed, one chain of several) above
SBP-tagged HER3-ECD (human), sequence (chain, as listed by the source limits assumed, form in doubt): as the sequence (P21860 20-643 limits assumed, one chain of several) above

## Europium-labeled Heregulin-beta (PeproTech, Cat. #100-03) (from UniProt Q02297-11 122-186) (ligand)
[1]
  time-resolved fluorescence signal at the plateau, in the presence of M-05-74: 650

B1: anti-HER3/HER4 antibody M-05-74 (antibody, V domains shown)
VH: QVQLQQSGAELAKPGASVKMSCKTSGYTLTDYWIHWVKQRPGQGLEWIGYINPYTGYTESNQKFKDKATLTADKSSNTAYIQLSSLTSEDSAVYYCARPYYYGDYWGQGTTLTVSS
VL: QIVLTQSPAIMSASPGERVTITCSASSSVSYMHWFQQKPGTSPKLLIYSTSNLASGVPARFSGSGSGTSYSLTISRMEAEDAATYYCQQRSSYPFTFGSGTKLEIK
notes: Murine monoclonal antibody from hybridoma (culture supernatant or purified full length); also called M-074; M-5-74
[2]
  ratio MR (+Heregulin)/MR (-Heregulin), against HER3-ECD alone: 3 fold
  ratio ka (+Heregulin)/ka (-Heregulin), against HER3-ECD alone: 4.85 fold
[3]
  ratio MR (+Heregulin)/MR (-Heregulin), against HER4-ECD alone: 6 fold
  ratio ka (+Heregulin)/ka (-Heregulin), against HER4-ECD alone: 23.9 fold

B2: huMab M-05-74_5 (antibody, V domains shown)
VH: QVQLVQSGAELKKPGASVKVSCKASGYTLTDYWIHWVRQAPGQGLEWMGYINPYTGYTESNQKFQGRVTMTADTSTSTAYMELSSLRSEDTAVYYCARPYYYGDYWGQGTTVTVSS
VL: EIVLTQSPATLSLSPGERATLSCRASSSVSYMHWYQQKPGQAPRLLIYSTSNLATGIPARFSGSGSGTDFTLTISSLEPEDFAVYYCQQRSSYPFTFGQGTKLEIK
notes: Humanized variant of M-05-74
[4]
  Kd: 4.1 nM
[5]
  Kd: 3.2 nM

B3: huMab M-05-74_6 (antibody, V domains shown)
VH: B2 VH
VL: DIQMTQSPSSLSASVGDRVTITCRASSSVSYMHWFQQKPGKAPKLLIYSTSNLQSGVPSRFSGSGSGTDFTLTISSLQPEDFATYYCQQRSSYPFTFGQGTKLEIK
notes: Humanized variant of M-05-74
[4]
  Kd: 8.6 nM
[6]
  Kd: 8.3 nM
